Positions count from the first letter of the chain named. Like-named read-outs stand apart in the source and are kept apart here.
B1: LxA3-E4 (antibody, V domains shown)
VH: EVQLVESGGGLVQPGGSLRLSCEASGFTFPNQAMTWVRQAPGKGLEWIGVIASNADTYYASWAKGRFTISRDNSKNTLYLQMNSLRAEDTAVYYCARHPGSAGYGYGHYYAMDPWGQGTLVTVSS
VL: DIQMTQSPSSLSASVGDRVTITCQASENIRYAINWYQQKPGKAPKLLIYGATYRDEGVPSRFSGSGSGTDYTLTISSLQPEDFATYYCQQGYVVPNSFGGGTKVEIK
B2: humanized antibody hN2F (antibody, V domains shown)
VH: B1 VH with E23T, A24V, T28S, F29L, P30S, N31T, Q32Y, T35S, G107A, H108V
VL: DIQMTQSPSSLSASVGDRVTITCKASEDIRYGLNWYQQKPGKAPKLLIYGANTLEAGVPSRFSGSGSGTDFTLTISSLQPEDFATYYCQQGYSTPLTFGGGTKVEIK
B3: humanized antibody hN2Y (antibody, V domains shown)
VH: B1 VH with E23T, A24V, T28S, F29L, P30S, N31T, Q32Y, T35S, G107A, H108V
VL: B2 VL with F71Y
B4: rabbit monoclonal antibody C-A11 (antibody, V domains shown)
VH: QSLEESGGRLVTPGTPLTLTCTVSGFSLSTYAMSWVRQAPGKGLEWIGVIASNADTYYASWAKGRITISKTSTTVDLKITSPTTEDTATYFCARHPGSAGYGYAVYYAMDPWGPGTLVTVSS
VL: AIEMTQSPSSLAASVGDTVTITCKASEDIRYGLNWYQQKLGIAPKLLIYGANTLEAGVPSRFSGSGSETDYTLTISSVQAEDAGIYYCQQGYSTPLTFGAGTKVEIK
B5: LxA3-B11 (antibody, V domains shown)
VH: B1 VH
VL: DIQMTQSPSSLSASVGDRVTITCLASEQAHYAINWYQQKPGKAPKLLIYGTSLLAEGVPSRFSGSGSGTDFTLTISSLQPEDFATYYCQQGYIVPISFGGGTKVEIK

Assays:
[1] = molecular target: T1, SARS-CoV-2 spike protein trimer, Omicron (B.1.1.529) variant (SARS-CoV-2, UniProt P0DTC2 16-1213); assay: BLI
[2] = molecular target: SARS-CoV-2 spike protein trimer, Epsilon (B.1.429) variant (SARS-CoV-2, UniProt P0DTC2 16-1213)
[3] = molecular target: T2, SARS-CoV-2 spike protein trimer, Beta (B.1.351) variant (SARS-CoV-2, UniProt P0DTC2 16-1213)
[4] = molecular target: SARS-CoV-2 spike protein trimer, Kappa (B.1.617.1) variant (SARS-CoV-2, UniProt P0DTC2 16-1213)
[5] = molecular target: SARS-CoV-2 spike protein trimer, Gamma (P.1) variant (SARS-CoV-2, UniProt P0DTC2 16-1213)
[6] = molecular target: SARS-CoV-2 spike protein trimer, Alpha (B.1.1.7) variant (SARS-CoV-2, UniProt P0DTC2 16-1213)
[7] = molecular target: T1, SARS-CoV-2 spike protein trimer, …; assay: flow
[8] = molecular target: T1, SARS-CoV-2 spike protein trimer, …; assay: ELISA
[9] = molecular target: SARS-CoV-2 spike protein trimer, Delta (B.1.617.2) variant (SARS-CoV-2, UniProt P0DTC2 16-1213); assay: ELISA
[10] = molecular target: SARS-CoV-2 spike protein trimer, Omicron (BA.2) variant (SARS-CoV-2, UniProt P0DTC2 16-1213); assay: ELISA
[11] = molecular target: T2, SARS-CoV-2 spike protein trimer, Beta …; assay: BLI
[12] = molecular target: T1, SARS-CoV-2 spike protein trimer, …; assay: BLI; remark: listed apart in the source
[13] = molecular target: T2, SARS-CoV-2 spike protein trimer, Beta …; assay: BLI; remark: listed apart in the source
[14] = molecular target: T1, SARS-CoV-2 spike protein trimer, …; assay: BLI; remark: listed apart in the source

Binder	Kd [1]	IC50 [2]	IC50 [3]	IC50 [4]	IC50 [5]	IC50 [6]	IC50 [7]	IC50 [8]	IC50 [9]	IC50 [10]	Kd [11]	Kd [12]	Kd [13]	Kd [14]
B1	< 0.001 nM	–	–	–	–	–	–	–	–	–	–	–	–	–
B2	–	0.0101 µg/mL	1.29 µg/mL	0.0589 µg/mL	2.18 µg/mL	0.0561 µg/mL	> 0.5 µg/mL	–	–	–	–	–	–	–
B3	–	0.0184 µg/mL	0.0347 µg/mL	0.0117 µg/mL	0.0588 µg/mL	0.0704 µg/mL	–	0.44 µg/mL	4.19 ng/mL	0.159 µg/mL	0.193 nM	0.123 nM	0.193 nM	0.123 nM
B4	–	0.00314 µg/mL	0.0218 µg/mL	0.0141 µg/mL	0.0548 µg/mL	0.0495 µg/mL	> 0.5 µg/mL	–	–	–	0.0404 nM	–	0.0404 nM	–
B5	0.0449 nM	–	–	–	–	–	–	–	–	–	–	–	–	–
